How the values were obtained:
[1] = system: N#CCC1(C#N)CCCCC1; assay: Kinetic parameters of the nitrilase, purified AcN-F168V (parent); format: biochemical, Acidovorax facilis CCTCC NO: M 209044; settings: other: AcN-F168V, pH 7.0, 20 mM phosphate buffer, 45° C., 6.75-40.49 mM substrate
Method: (§1) The kinetic parameters of the purified protein in example 3 were determined, using 1-cyanocyclohexylacetonitrile as the substrate and the pure enzyme solutions of AcN-F168V, G180D, A205C, G180F, and G180D/A205C as the catalyst.
(§2) 10 mL of the reaction system was as follows: the purified enzyme solution (165 U/g) was diluted 10 times with a pH 7.0, 20 mM phosphate buffer and the final concentration of the purified nitrilase was 0.2 mg/mL. The resulting enzyme solution was put into a reaction container, added with the substrate at final concentrations of 6.75-40.49 mM (6.75, 13.50, 20.24, 26.99, 33.74 and 40.49 mM, respectively) and added with a pH 7.0, 20 mM phosphate buffer as the reaction medium up to 10 mL, the reaction solution was reacted at 45° C. and 600 rpm for 5 min, 500 μL of the sample was taken out, 500 μL of 2 M HCl was added to terminate the reaction, and the concentration of 1-cyanocyclohexyl acetic acid in the reaction solution was determined by HPLC (The detection and analysis conditions are the same as that in example 4).
(§3) Collected test data was used to conduct nonlinear fitting by Origin, thereby obtaining the Km value and Kcat value of the nitrilase E. coli BL21 (DE3)/pET-28b (+)-AcN-F168V and its combinatorial mutants E. coli BL21 (DE3)/pET-28b (+)-AcN-G180D, E. coli BL21 (DE3)/pET-28b (+)-AcN-G180F, E. coli BL21 (DE3)/pET-28b (+)-AcN-A205C and E. coli BL21 (DE3)/pET-28b (+)-AcN-G180D/A205C as shown in table 2.

[2] = molecular target: Acidovorax facilis CCTCC NO: M 209044 nitrilase AcN-F168V (SEQ ID No. 2) mutant G180D/A205C, SEQ ID No. 10 (Acidovorax facilis, UniProt Q1W2L4); assay: Kinetic parameters of the nitrilase double mutant G180D/A205C; format: biochemical; settings: pH 7.0, 20 mM phosphate buffer, 45° C.
Method: as §1, §2, §3

[3] = system: N#CCC1(C#N)CCCCC1; assay: Kinetic parameters of the nitrilase mutant G180D; format: biochemical, Acidovorax facilis CCTCC NO: M 209044; settings: other: G180D, pH 7.0, 20 mM phosphate buffer, 45° C., 6.75-40.49 mM substrate
Method: as §1, §2, §3

[4] = system: N#CCC1(C#N)CCCCC1; assay: Kinetic parameters of the nitrilase mutant A205C; format: biochemical, Acidovorax facilis CCTCC NO: M 209044; settings: other: A205C, pH 7.0, 20 mM phosphate buffer, 45° C., 6.75-40.49 mM substrate
Method: as §1, §2, §3

[5] = system: N#CCC1(C#N)CCCCC1; assay: Kinetic parameters of the nitrilase mutant G180F; format: biochemical, Acidovorax facilis CCTCC NO: M 209044; settings: other: G180F, pH 7.0, 20 mM phosphate buffer, 45° C., 6.75-40.49 mM substrate
Method: as §1, §2, §3

## Acidovorax facilis CCTCC NO: M 209044 nitrilase AcN-F168V, SEQ ID No. 2 (Acidovorax facilis; F168V)
[1]
  Km: 16.25 ± 5.37 mM
  Vmax: 1530 µmol/min/mg
  kcat: 5573 s⁻¹

## N#CCC1(C#N)CCCCC1 [1-cyanocyclohexylacetonitrile]
[2]
  Kcat: 24139 s⁻¹
  Kcat/Km: 341.236 M⁻¹ s⁻¹
  Vmax: 4.78 ± 0.73 mmolmg^−1min^−1
[2]; 6.75-40.49 mM substrate
  Km: 19.7 ± 7.4 mM

## Acidovorax facilis CCTCC NO: M 209044 nitrilase AcN-F168V (SEQ ID No. 2) mutant G180D, SEQ ID No. 4 (Acidovorax facilis; F168V/G180D)
[3]
  Km: 3.21 ± 1.41 mM
  Vmax: 1980 µmol/min/mg
  kcat: 6624 s⁻¹

## Acidovorax facilis CCTCC NO: M 209044 nitrilase AcN-F168V (SEQ ID No. 2) mutant A205C, SEQ ID No. 8 (Acidovorax facilis; A205C/F168V)
[4]
  Km: 3.40 ± 0.78 mM
  Vmax: 1630 µmol/min/mg
  kcat: 8317 s⁻¹

## Acidovorax facilis CCTCC NO: M 209044 nitrilase AcN-F168V (SEQ ID No. 2) mutant G180F, SEQ ID No. 6 (Acidovorax facilis; F168V/G180F)
[5]
  Km: 5.88 ± 1.58 mM
  Vmax: 2350 µmol/min/mg
  kcat: 7612 s⁻¹
